System: renin-angiotensin system (RAS)
Assay: RSSE-Fingerprinting: blood incubated at 37° C. with added agents, LC-MS/MS quantification of angiotensin peptides
Assay type: biochemical, human
Details: for shift of RSSE-Fingerprint: 5 μg/ml enzyme added prior to incubation
Procedure: Blood samples were collected and anti-coagulated with standardised heparin tubes (BD). As indicated in FIGS. 3A-3C, plasma separation has been done for the respective samples before the incubation to reach steady state equilibrium.
Following plasma separation by centrifugation at 3000 rcf for 10 minutes at 4° C., […] of plasma was applied onto an activated and equilibrated SEP-PAK™ C18 cartridge. Sample matrix components were removed by washing three times with 1 ml water. Bound analytes were then eluted with 1 ml of methanol. Eluates were evaporated to dryness and reconstituted in 10% acetonitril/90% water supplemented with 0.1% formic acid followed by subjection to LC-MS/MS analysis.
A vacuum manifold has been used for sample processing. • 1. Activation: EtOH abs. • 2. Equilibration: 2×1 ml H2O • 3. Loading: 0.2-1 ml stabilised plasma • 4. Washing: 3×1 ml H2O • 5. Elution: 1 ml MeOH Quantification and Signal Integration
MRM chromatograms were integrated using Analyst 1.5.1 software provided by Applied Biosystems. The threshold for the quantification limit was set at a signal-to-noise ratio of 10. Integration signals not reaching this ratio were set to zero. Analyte signals were related to internal standard signals and concentration was calculated from initially spiked amounts of internal standards.

B1: NEP: recombinant neutral endopeptidase (neprilysin), purchased from R&D Systems (protein, UniProt P08473 2-750, looked up)
Neprilysin: GKSESQMDITDINTPKPKKKQRWTPLEISLSVLVLLLTIIAVTMIALYATYDDGICKSSDCIKSAARLIQNMDATTEPCTDFFKYACGGWLKRNVIPETSSRYGNFDILRDELEVVLKDVLQEPKTEDIVAVQKAKALYRSCINESAIDSRGGEPLLKLLPDIYGWPVATENWEQKYGASWTAEKAIAQLNSKYGKKVLINLFVGTDDKNSVNHVIHIDQPRLGLPSRDYYECTGIYKEACTAYVDFMISVARLIRQEERLPIDENQLALEMNKVMELEKEIANATAKPEDRNDPMLLYNKMTLAQIQNNFSLEINGKPFSWLNFTNEIMSTVNISITNEEDVVVYAPEYLTKLKPILTKYSARDLQNLMSWRFIMDLVSSLSRTYKESRNAFRKALYGTTSETATWRRCANYVNGNMENAVGRLYVEAAFAGESKHVVEDLIAQIREVFIQTLDDLTWMDAETKKRAEEKALAIKERIGYPDDIVSNDNKLNNEYLELNYKEDEYFENIIQNLKFSQSKQLKKLREKVDKDEWISGAAVVNAFYSSGRNQIVFPAGILQPPFFSAQQSNSLNYGGIGMVIGHEITHGFDDNGRNFNKDGDLVDWWTQQSASNFKEQSQCMVYQYGNFSWDLAGGQHLNGINTLGENIADNGGLGQAYRAYQNYIKKNGEEKLLPGLDLNHKQLFFLNFAQVWCGTYRPEYAVNSIKTDVHSPGNFRIIGTLQNSAEFSEAFHCRKNSYMNPEKKCRVW
  shift of RSSE-Fingerprint: shifted as expected

B2: APN: recombinant aminopeptidase N, purchased from R&D Systems (protein, UniProt P15144 2-967, looked up)
Aminopeptidase N: AKGFYISKSLGILGILLGVAAVCTIIALSVVYSQEKNKNANSSPVASTTPSASATTNPASATTLDQSKAWNRYRLPNTLKPDSYRVTLRPYLTPNDRGLYVFKGSSTVRFTCKEATDVIIIHSKKLNYTLSQGHRVVLRGVGGSQPPDIDKTELVEPTEYLVVHLKGSLVKDSQYEMDSEFEGELADDLAGFYRSEYMEGNVRKVVATTQMQAADARKSFPCFDEPAMKAEFNITLIHPKDLTALSNMLPKGPSTPLPEDPNWNVTEFHTTPKMSTYLLAFIVSEFDYVEKQASNGVLIRIWARPSAIAAGHGDYALNVTGPILNFFAGHYDTPYPLPKSDQIGLPDFNAGAMENWGLVTYRENSLLFDPLSSSSSNKERVVTVIAHELAHQWFGNLVTIEWWNDLWLNEGFASYVEYLGADYAEPTWNLKDLMVLNDVYRVMAVDALASSHPLSTPASEINTPAQISELFDAISYSKGASVLRMLSSFLSEDVFKQGLASYLHTFAYQNTIYLNLWDHLQEAVNNRSIQLPTTVRDIMNRWTLQMGFPVITVDTSTGTLSQEHFLLDPDSNVTRPSEFNYVWIVPITSIRDGRQQQDYWLIDVRAQNDLFSTSGNEWVLLNLNVTGYYRVNYDEENWRKIQTQLQRDHSAIPVINRAQIINDAFNLASAHKVPVTLALNNTLFLIEERQYMPWEAALSSLSYFKLMFDRSEVYGPMKNYLKKQVTPLFIHFRNNTNNWREIPENLMDQYSEVNAISTACSNGVPECEEMVSGLFKQWMENPNNNPIHPNLRSTVYCNAIAQGGEEEWDFAWEQFRNATLVNEADKLRAALACSKELWILNRYLSYTLNPDLIRKQDATSTIISITNNVIGQGLVWDFVQSNWKKLFNDYGGGSFSFSNLIQAVTRRFSTEYELQQLEQFKKDNEETGFGSGTRALEQALEKTKANIKWVKENKEVVLQWFTENSK
  shift of RSSE-Fingerprint: shifted as expected

B3: ACE: recombinant RAS enzyme Angiotensin Converting Enzyme, purchased from R&D Systems (protein, UniProt P12821 30-1306, looked up)
Angiotensin-converting enzyme: LDPGLQPGNFSADEAGAQLFAQSYNSSAEQVLFQSVAASWAHDTNITAENARRQEEAALLSQEFAEAWGQKAKELYEPIWQNFTDPQLRRIIGAVRTLGSANLPLAKRQQYNALLSNMSRIYSTAKVCLPNKTATCWSLDPDLTNILASSRSYAMLLFAWEGWHNAAGIPLKPLYEDFTALSNEAYKQDGFTDTGAYWRSWYNSPTFEDDLEHLYQQLEPLYLNLHAFVRRALHRRYGDRYINLRGPIPAHLLGDMWAQSWENIYDMVVPFPDKPNLDVTSTMLQQGWNATHMFRVAEEFFTSLELSPMPPEFWEGSMLEKPADGREVVCHASAWDFYNRKDFRIKQCTRVTMDQLSTVHHEMGHIQYYLQYKDLPVSLRRGANPGFHEAIGDVLALSVSTPEHLHKIGLLDRVTNDTESDINYLLKMALEKIAFLPFGYLVDQWRWGVFSGRTPPSRYNFDWWYLRTKYQGICPPVTRNETHFDAGAKFHVPNVTPYIRYFVSFVLQFQFHEALCKEAGYEGPLHQCDIYRSTKAGAKLRKVLQAGSSRPWQEVLKDMVGLDALDAQPLLKYFQPVTQWLQEQNQQNGEVLGWPEYQWHPPLPDNYPEGIDLVTDEAEASKFVEEYDRTSQVVWNEYAEANWNYNTNITTETSKILLQKNMQIANHTLKYGTQARKFDVNQLQNTTIKRIIKKVQDLERAALPAQELEEYNKILLDMETTYSVATVCHPNGSCLQLEPDLTNVMATSRKYEDLLWAWEGWRDKAGRAILQFYPKYVELINQAARLNGYVDAGDSWRSMYETPSLEQDLERLFQELQPLYLNLHAYVRRALHRHYGAQHINLEGPIPAHLLGNMWAQTWSNIYDLVVPFPSAPSMDTTEAMLKQGWTPRRMFKEADDFFTSLGLLPVPPEFWNKSMLEKPTDGREVVCHASAWDFYNGKDFRIKQCTTVNLEDLVVAHHEMGHIQYFMQYKDLPVALREGANPGFHEAIGDVLALSVSTPKHLHSLNLLSSEGGSDEHDINFLMKMALDKIAFIPFSYLVDQWRWRVFDGSITKENYNQEWWSLRLKYQGLCPPVPRTQGDFDPGAKFHIPSSVPYIRYFVSFIIQFQFHEALCQAAGHTGPLHKCDIYQSKEAGQRLATAMKLGFSRPWPEAMQLITGQPNMSASAMLSYFKPLLDWLRTENELHGEKLGWPQYNWTPNSARSEGPLPDSGRVSFLGLDLDAQQARVGQWLLLFLGIALLVATLGLSQRLFSIRHRSLHRHSHGPQFGSEVELRHS
  shift of RSSE-Fingerprint: shifted as expected
5 μg/ml enzyme, FIG. 2B1
  steady state equilibrium Ang 1-10 concentration, addition of ACE compared to ACE2: lower

Reference: patent US11079398B2, “Method for measurement of peptidic degradation products of a proteolytic cascade in blood samples” (ATTOQUANT DIAGNOSTICS GMBH, priority 2012, dated 2021)
